These results are taken from article PMC10284548.

Assay [1] concerns the target AsLOV2. Description: single-molecule force spectroscopy (dual-beam optical tweezers); constant load of 11 or 16 pN under 488-nm light (laser intensity 3 and 30%, pooled); AsLOV2 and Zdk2 on one chain joined by (GGS)42; PBS, 1 mM TCEP, pH 7.4.
Assay [2] deals with AsLOV2. In words: single-molecule force spectroscopy (dual-beam optical tweezers); constant load of 11 or 16 pN, dark; AsLOV2 and Zdk2 on one chain joined by (GGS)42, tethered by DNA handles between two beads; PBS, 1 mM TCEP, pH 7.4.
For assay [3], the target named is AsLOV2(V416L). In words: single-molecule force spectroscopy (dual-beam optical tweezers); jump experiments between 0 and 20.5 ± 1 pN to obtain unbinding and rebinding lifetimes; AsLOV2 and Zdk2 on one chain joined by (GGS)42; PBS, 1 mM TCEP, pH 7.4.
The target of assay [4] is AsLOV2. The description is as above.
Assay [5] addresses AsLOV2(V416L). Description: single-molecule force spectroscopy (dual-beam optical tweezers); constant velocity (force-extension) experiments, 200 and 500 nm/s; AsLOV2 and Zdk2 on one chain joined by (GGS)42, tethered by DNA handles between two beads; PBS, 1 mM TCEP, pH 7.4, oxygen scavenger; dark.
Assay [6] addresses AsLOV2. Described as above.

In assay [1], Zdk2 (designed binder) yielded an average lifetime of the bound state at 11 pN, with 488-nm light of 47 s and an average lifetime of the bound state at 16 pN, with 488-nm light of 45 s. In assay [2], this substance came in with an average lifetime of the bound state at 11 pN, without light of 174 s; an average lifetime of the bound state at 16 pN, without light of 74 s; a percent of experiments at 11 pN without dissociation within 9 min of 30%. For the same substance, in assay [3], the average lifetime of the peptide-bound state under force was found to be 0.18 s and the rebinding time at zero force is 0.44 s. Also, in assay [4], the average lifetime of the peptide-bound state under force worked out at 0.56 s and the rebinding time at zero force is 0.13 s. Also, in assay [5], the unbinding force came out at 22 pN. This substance displayed an unbinding force in assay [6] of 24 pN.
